Where “and” joins values, the source holds several entries; their conditions need not be identical. Equal values may be shown once.
Conditions: Homo sapiens; pH 7.82; 20 °C; GdnHCl; CD; sodium phosphate 50 mM; whole UniProt chain shown

B1: Thioredoxin-like protein 4A wild type, P83876 (protein)
chain: MSYMLPHLHNGWQVDQAILSEEDRVVVIRFGHDWDPTCMKMDEVLYSIAEKVKNFAVIYLVDITEVPDFNKMYELYDPCTVMFFFRNKHIMIDLGTGNNNKINWAMEDKQEMVDIIETVYRGARKGRGLVVSPKDYSTKYRY
- denaturant m value: 2.16 kcal/mol/M and 3.24 kcal/mol/M
- denaturant midpoint (higher = more stable): 3.39 M and 3.41 M
- unfolding free energy: 7.32 kcal/mol and 11.1 kcal/mol

Source: FireProtDB (doi:10.1021/bi034486i)
